Tests used:
[1] = target: T1, PR2: H-(PR)2HHHHHH-NH2; experiment: indirect ELISA, His-tagged peptide coated at 50 ug/ml, antibody titrated [also D00027 FIG. 7O]
T1 peptide: H-PRPRHHHHHH-NH2
Procedure: (§1) 96-well microplates (Corning Incorporated, Corning, USA) were coated with dipeptide repeat protein peptides at a concentration of 50 μg/ml in coating buffer (15 mM Na₂CO₃, 35 mM NaHCO₃, pH 9.42). Non-specific binding sites were blocked for 1 h at room temperature with PBS/0.1% Tween®-20 containing 2% BSA (Sigma-Aldrich, Buchs, Switzerland). Primary antibodies were diluted to the indicated concentrations and incubated 1 h at room temperature, followed by incubation with a donkey anti-human IgG Fcγ-specific antibody conjugated with HRP (Jackson ImmunoResearch Laboratories, Inc., West Grove, USA). Binding was determined by measurement of HRP activity in a standard colorimetric assay. EC₅₀ values were estimated by non-linear regression using GraphPad Prism software (San Diego, USA).
(§2) High affinity binding was detected for poly-GA DPRs harboring 10 or 20 (GA)-repeats, reflected in an EC₅₀ in the subnanomolar or low nanomolar range (FIGS. 7A, 7C-7I).

[2] = target: T2, PR5: H-(PR)5HHHHHH-NH2; experiment: as above
T2 peptide: H-PRPRPRPRPRHHHHHH-NH2
Procedure: as §1, §2

[3] = target: T3, PR4: H-(PR)4HHHHHH-NH2; experiment: as above
T3 peptide: H-PRPRPRPRHHHHHH-NH2
Procedure: as §1, §2

[4] = target: T4, PR3: H-(PR)3HHHHHH-NH2; experiment: as above
T4 peptide: H-PRPRPRHHHHHH-NH2
Procedure: as §1, §2

[5] = target: T5, GP2: H-(GP)2HHHHHH-NH2; experiment: indirect ELISA, His-tagged peptide coated at 50 ug/ml, antibody titrated [also D00027 FIG. 7N]
T5 peptide: H-GPGPHHHHHH-NH2
Excerpt: (§3) In brief, dipeptide repeat proteins were synthesized and purified by Schafer-N (Copenhagen, Denmark): GA₂₀: H-(GA)₂₀HHHHHH-NH₂; GA₁₀: H-(GA)₁₀HHHHHH-NH₂; GA₆: H-(GA)₆HHHHHH-NH₂; GA₅: H-(GA)₅HHHHHH-NH₂; GA₄: H-(GA)₄HHHHHH-NH₂; GA₃: H-(GA)₃HHHHHH-NH₂; GA₂: H-(GA)₂HHHHHH-NH₂; GP₂₀: H-(GP)₂₀HHHHHH-NH₂; GP₁₀: H-(GP)₁₀HHHHHH-NH₂; GP₆: H-(GP)₆HHHHHH-NH₂; GP₅: H-(GP)₅HHHHHH-NH₂; GP₄: H-(GP)₄HHHHHH-NH₂; GP₃: H-(GP)₃HHHHHH-NH₂; GP₂: H-(GP)₂HHHHHH-NH₂. GR₂₀: H-(GR)₂₀HHHHHH-NH₂; GR₁₀: H-(GR)₁₀HHHHHH-NH₂; GR₆: H-(GR)₆HHHHHH-NH₂; GR₅: H-(GR)₅HHHHHH-NH₂; GR₄: H-(GR)₄HHHHHH-NH₂; GR₃: H-(GR)₃HHHHHH-NH₂; GR₂: H-(GR)₂HHHHHH-NH₂; PA₂₀: H-(PA)₂₀HHHHHH-NH₂; PA₁₀: H-(PA)₁₀HHHHHH-NH₂; PA₆: H-(PA)₆HHHHHH-NH₂; PA₅: H-(PA)₅HHHHHH-NH₂; PA₄: H-(PA)₄HHHHHH-NH₂; PA₃: H-(PA)₃HHHHHH-NH₂; PA₂: H-(PA)₂HHHHHH-NH₂; PR₂₀: H-(PR)₂₀HHHHHH-NH₂; PR₁₀: H-(PR)₁₀HHHHHH-NH₂; PR₆: H-(PR)₆HHHHHH-NH₂; PR₅: H-(PR)₅HHHHHH-NH₂; PR₄: H-(PR)₄HHHHHH-NH₂; PR₃: H-(PR)₃HHHHHH-NH₂; PR₂: H-(PR)₂HHHHHH-NH₂. 96-well microplates (Corning Incorporated, Corning, USA) were coated with dipeptide repeat protein peptides at a concentration of 50 μg/ml in coating buffer (15 mM Na₂CO₃, 35 mM NaHCO₃, pH 9.42). Non-specific binding sites were blocked for 1 h at room temperature with PBS/0.1% Tween®-20 containing 2% BSA (Sigma-Aldrich, Buchs, Switzerland). Primary antibodies were diluted to the indicated concentrations and incubated 1 h at room temperature, followed by incubation with a donkey anti-human IgG Fcγ-specific antibody conjugated with HRP (Jackson ImmunoResearch Laboratories, Inc., West Grove, USA). Binding was determined by measurement of HRP activity in a standard colorimetric assay. EC₅₀ values were estimated by non-linear regression using GraphPad Prism software (San Diego, USA).

[6] = target: T6, GP3: H-(GP)3HHHHHH-NH2; experiment: as above
T6 peptide: H-GPGPGPHHHHHH-NH2
Excerpt: as §3

[7] = target: T7, GP5: H-(GP)5HHHHHH-NH2; experiment: as above
T7 peptide: H-GPGPGPGPGPHHHHHH-NH2
Excerpt: as §3

[8] = target: T8, GP4: H-(GP)4HHHHHH-NH2; experiment: as above
T8 peptide: H-GPGPGPGPHHHHHH-NH2
Excerpt: as §3

[9] = target: T9, GA2: H-(GA)2HHHHHH-NH2; experiment: indirect ELISA, His-tagged peptide coated at 50 ug/ml, antibody titrated [also D00027 FIG. 7M]
T9 peptide: H-GAGAHHHHHH-NH2
Excerpt: as §3

[10] = target: T10, GA3: H-(GA)3HHHHHH-NH2; experiment: as above
T10 peptide: H-GAGAGAHHHHHH-NH2
Excerpt: as §3

[11] = target: T11, GA5: H-(GA)5HHHHHH-NH2; experiment: as above
T11 peptide: H-GAGAGAGAGAHHHHHH-NH2
Excerpt: as §3

[12] = target: T12, GA4: H-(GA)4HHHHHH-NH2; experiment: as above
T12 peptide: H-GAGAGAGAHHHHHH-NH2
Excerpt: as §3

B1: NI-308.24E11 (antibody, V domains shown)
VH: QVQLQESGPGLVKPSETLSLTCTVSTTSLRSYFWSWIRQPPGKGLEWIGYVYYSGSTIYNPSLKNRVTISIDTSKNQFSLNLRSVTAADTAMYFCARGVPAETDARDFPPYYFDHWGQGTLVTVSS
VL: CDIQLTQSPSSLSASVGNRITFTCQASQDIRYYLNWYQQKPGKAPKLLIYDVSNLDTGVPPRFSGSGSGTNFTFTISSLQPEDIAVYYCQQYEGLPVTFGGGTKVEIK
notes: Recombinant complete human IgG1, kappa
[1]
  binding result: no binding (tested: about 4x10^5 pM (last point))
[2]
  binding result: no binding (tested: about 4x10^5 pM (last point))
[3]
  binding result: no binding (tested: about 4x10^5 pM (last point))
[4]
  binding result: no binding (tested: about 4x10^5 pM (last point))

B2: NI-308.46E9 (antibody, V domains shown)
VH: QVQLQESGPGLVKPSETLSLTCTVSGASISGSTYYWGWIRQPPGKGLEYIGRIYYSGSTYYNPSLKSRATISVDTSKNQLSLTLSSVTAADTAVYYCVRPFYAGSGNSPFDYWGQGTLVTVSS
VL: CEIVLTQSPATVSVSPGERATLSCRASQSVSTNLAWYQQKPGQPPRLLIYGASTRATGIPARFSGSGSGAEFTLTISSLQSEDFVVYYCQQYNNWPPAFGGGTKVEIK
notes: as for B1
[5]
  binding result: no binding (tested: about 4x10^5 pM (last point))
[6]
  binding result: no binding (tested: about 4x10^5 pM (last point))
[7]
  binding result: no binding (tested: about 4x10^5 pM (last point))
[8]
  binding result: no binding (tested: about 4x10^5 pM (last point))

B3: NI-308.6B11 (antibody, V domains shown)
VH: EVQLVQSGAEVKRPGASVKVSCKVSGYTLTELSMHWVRQAPGKGLEWMGGFDPEDGETVYAQKFQGRVTMTEDTSTDTAYMELSSLRSEDTALYHCATYGSSWHWNEGNEGSYYFDYWGQGTLVTVSS
VL: CDIQMTQSPSSLSASVGDRVTITCQASQDISIYLNWYQQKPGKAPKLLIYDASNLETGVPSRFSGSGSGTDFTFTISGLQPEDVARYYCQQYDDLPITFGQGTRLEIK
notes: as for B1
[9]
  binding result: no binding (tested: about 4x10^5 pM (last point))
[10]
  binding result: no binding (tested: about 4x10^5 pM (last point))
[11]
  binding result: no binding (tested: about 4x10^5 pM (last point))
[12]
  binding result: no binding (tested: about 4x10^5 pM (last point))
